T1: constitutively active human NPR1 mutant (W74R), recombinant antigen (human, UniProt P16066 33-473)
T1 construct: also called W74R hNPR1
T1 sequence: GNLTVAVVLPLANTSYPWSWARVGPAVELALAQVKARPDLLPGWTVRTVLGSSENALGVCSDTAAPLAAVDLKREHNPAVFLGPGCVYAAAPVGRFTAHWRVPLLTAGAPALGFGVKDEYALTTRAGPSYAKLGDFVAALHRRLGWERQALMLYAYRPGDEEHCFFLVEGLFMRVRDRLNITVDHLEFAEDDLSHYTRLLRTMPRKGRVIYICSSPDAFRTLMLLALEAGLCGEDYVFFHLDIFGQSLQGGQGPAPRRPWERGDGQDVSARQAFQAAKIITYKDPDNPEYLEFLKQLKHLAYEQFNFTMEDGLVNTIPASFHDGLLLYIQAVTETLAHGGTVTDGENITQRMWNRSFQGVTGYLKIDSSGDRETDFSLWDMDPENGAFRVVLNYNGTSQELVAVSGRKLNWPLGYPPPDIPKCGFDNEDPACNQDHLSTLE

T2: human NPR1 (Natriuretic Peptide Receptor 1), recombinant antigen (human, UniProt P16066 33-473)
T2 construct: also called hNPR1; NPR1-hFc
T2 sequence: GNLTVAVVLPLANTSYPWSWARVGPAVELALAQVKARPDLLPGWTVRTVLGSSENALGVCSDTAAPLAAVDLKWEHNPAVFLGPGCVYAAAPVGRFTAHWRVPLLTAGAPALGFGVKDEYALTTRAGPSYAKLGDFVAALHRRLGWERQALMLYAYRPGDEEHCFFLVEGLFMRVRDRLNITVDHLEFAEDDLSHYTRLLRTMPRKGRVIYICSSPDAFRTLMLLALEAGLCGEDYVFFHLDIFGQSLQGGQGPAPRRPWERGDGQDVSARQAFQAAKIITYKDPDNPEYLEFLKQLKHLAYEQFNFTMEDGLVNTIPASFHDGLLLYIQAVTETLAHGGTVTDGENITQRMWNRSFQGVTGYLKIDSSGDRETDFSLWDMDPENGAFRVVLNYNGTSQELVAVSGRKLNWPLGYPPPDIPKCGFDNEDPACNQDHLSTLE

T3: rat NPR1, recombinant antigen (rat, UniProt P18910 29-469)
T3 construct: NCBI NP_036745.1 printed; also called rNPR1
T3 sequence: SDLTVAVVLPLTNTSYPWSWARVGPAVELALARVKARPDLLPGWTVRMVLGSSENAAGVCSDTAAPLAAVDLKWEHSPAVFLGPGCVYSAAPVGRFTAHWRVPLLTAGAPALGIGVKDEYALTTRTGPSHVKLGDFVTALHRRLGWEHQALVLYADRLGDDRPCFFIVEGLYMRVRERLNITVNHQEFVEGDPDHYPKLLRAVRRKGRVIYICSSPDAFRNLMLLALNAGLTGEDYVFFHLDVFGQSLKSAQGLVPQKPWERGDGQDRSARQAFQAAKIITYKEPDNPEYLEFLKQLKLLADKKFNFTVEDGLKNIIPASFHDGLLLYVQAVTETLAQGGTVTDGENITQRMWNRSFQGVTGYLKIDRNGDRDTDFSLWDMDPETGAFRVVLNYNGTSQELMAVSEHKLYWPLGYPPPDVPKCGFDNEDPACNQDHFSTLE

T4: human NPR3 (counter target) (human, UniProt P17342 27-481, limits assumed)
T4 construct: hNPR3-hFc is named in the pannings; also called hNPR3; hNPR3-hFc
T4 sequence (looked up): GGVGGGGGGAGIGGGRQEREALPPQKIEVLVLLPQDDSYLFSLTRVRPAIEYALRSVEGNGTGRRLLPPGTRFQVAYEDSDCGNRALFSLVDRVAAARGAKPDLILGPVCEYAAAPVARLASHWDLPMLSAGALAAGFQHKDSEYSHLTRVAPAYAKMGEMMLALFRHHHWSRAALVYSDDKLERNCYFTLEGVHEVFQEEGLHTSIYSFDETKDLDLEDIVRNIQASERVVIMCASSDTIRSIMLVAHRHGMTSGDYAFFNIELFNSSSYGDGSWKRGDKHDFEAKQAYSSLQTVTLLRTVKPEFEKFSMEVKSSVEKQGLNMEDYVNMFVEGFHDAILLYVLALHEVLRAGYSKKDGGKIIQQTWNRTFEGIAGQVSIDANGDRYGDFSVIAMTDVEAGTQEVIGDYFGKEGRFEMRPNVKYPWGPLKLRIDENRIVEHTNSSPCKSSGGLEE

T5: human NPR1 expressed on CHO-K1 cells (human, UniProt P16066 33-1061)
T5 sequence: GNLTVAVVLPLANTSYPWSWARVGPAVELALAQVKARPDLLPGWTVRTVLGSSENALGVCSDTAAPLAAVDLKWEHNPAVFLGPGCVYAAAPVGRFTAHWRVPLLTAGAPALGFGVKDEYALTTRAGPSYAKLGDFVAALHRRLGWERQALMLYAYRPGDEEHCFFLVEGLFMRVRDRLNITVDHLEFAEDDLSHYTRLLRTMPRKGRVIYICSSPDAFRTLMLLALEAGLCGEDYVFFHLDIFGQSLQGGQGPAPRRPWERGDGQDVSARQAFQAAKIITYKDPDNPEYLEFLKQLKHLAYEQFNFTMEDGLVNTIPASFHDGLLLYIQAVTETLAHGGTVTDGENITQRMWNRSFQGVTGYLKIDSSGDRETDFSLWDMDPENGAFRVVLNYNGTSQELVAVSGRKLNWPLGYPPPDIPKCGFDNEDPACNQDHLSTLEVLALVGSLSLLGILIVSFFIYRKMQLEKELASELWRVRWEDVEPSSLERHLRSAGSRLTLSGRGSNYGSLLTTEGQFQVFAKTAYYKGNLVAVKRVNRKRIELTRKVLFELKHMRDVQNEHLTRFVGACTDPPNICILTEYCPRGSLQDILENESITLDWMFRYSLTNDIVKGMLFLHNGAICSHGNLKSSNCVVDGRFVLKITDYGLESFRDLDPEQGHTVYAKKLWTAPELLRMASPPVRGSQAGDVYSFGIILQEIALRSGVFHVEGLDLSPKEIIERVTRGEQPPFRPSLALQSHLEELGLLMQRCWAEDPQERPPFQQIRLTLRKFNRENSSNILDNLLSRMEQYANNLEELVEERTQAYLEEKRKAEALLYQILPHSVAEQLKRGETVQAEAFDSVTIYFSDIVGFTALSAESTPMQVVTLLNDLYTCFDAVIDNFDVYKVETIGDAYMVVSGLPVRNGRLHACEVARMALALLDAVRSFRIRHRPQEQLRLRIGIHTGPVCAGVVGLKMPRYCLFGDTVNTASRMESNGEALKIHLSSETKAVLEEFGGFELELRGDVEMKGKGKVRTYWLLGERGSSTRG

T6: human NPR1-ANP complex (human, UniProt P01160 124-151, limits assumed)
T6 construct: Receptor antigen measured in the presence of ANP; also called hNPR1 + ANP; hNPR1-ANP-complex
T6 sequence: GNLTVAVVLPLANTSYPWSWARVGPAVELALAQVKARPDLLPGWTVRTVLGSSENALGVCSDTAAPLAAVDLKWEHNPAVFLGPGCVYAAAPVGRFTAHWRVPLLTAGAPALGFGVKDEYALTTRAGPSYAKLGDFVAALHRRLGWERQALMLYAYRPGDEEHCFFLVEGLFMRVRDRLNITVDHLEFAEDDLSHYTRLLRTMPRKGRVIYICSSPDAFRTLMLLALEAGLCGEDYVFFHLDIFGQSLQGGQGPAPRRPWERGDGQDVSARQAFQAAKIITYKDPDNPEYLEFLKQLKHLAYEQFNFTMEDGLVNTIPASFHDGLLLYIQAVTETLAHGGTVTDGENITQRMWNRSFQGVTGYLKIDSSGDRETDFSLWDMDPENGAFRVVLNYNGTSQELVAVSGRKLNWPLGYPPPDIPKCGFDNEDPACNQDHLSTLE
T6 sequence (peptide): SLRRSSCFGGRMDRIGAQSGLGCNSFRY

T7: human NPR1 expressed on CHO-K1 cells in the presence of ANP (human, UniProt P01160 124-151)
T7 construct: also called hNPR1 CHO K1 + 100 nM ANP
T7 sequence: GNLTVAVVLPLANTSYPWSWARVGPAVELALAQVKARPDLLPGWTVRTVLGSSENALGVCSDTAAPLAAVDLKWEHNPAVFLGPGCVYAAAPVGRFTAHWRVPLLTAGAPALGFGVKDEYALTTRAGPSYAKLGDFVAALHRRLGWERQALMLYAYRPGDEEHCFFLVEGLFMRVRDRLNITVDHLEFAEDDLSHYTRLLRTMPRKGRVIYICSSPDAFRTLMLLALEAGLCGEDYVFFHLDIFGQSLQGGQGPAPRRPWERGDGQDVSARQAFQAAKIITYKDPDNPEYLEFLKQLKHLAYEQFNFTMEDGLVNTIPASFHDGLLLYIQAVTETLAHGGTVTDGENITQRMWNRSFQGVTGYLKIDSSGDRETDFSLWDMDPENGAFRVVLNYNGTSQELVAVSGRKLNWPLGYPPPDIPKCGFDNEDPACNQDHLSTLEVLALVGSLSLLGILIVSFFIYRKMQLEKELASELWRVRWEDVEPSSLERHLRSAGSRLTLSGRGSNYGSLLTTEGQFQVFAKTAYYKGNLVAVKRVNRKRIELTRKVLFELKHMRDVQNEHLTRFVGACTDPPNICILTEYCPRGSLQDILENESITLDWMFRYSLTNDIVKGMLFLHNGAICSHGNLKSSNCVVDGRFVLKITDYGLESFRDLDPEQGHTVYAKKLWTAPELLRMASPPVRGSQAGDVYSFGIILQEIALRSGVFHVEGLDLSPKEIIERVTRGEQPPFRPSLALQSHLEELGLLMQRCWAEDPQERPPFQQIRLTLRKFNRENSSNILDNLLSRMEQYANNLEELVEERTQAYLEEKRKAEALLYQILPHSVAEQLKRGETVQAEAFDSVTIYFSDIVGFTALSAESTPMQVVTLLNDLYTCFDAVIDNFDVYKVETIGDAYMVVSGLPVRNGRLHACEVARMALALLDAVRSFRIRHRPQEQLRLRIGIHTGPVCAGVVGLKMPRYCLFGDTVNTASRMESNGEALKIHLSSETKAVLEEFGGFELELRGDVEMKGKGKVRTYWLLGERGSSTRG
T7 sequence (peptide): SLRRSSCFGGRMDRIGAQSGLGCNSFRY


Assays:
[1] = biological target: T1, constitutively active human NPR1 mutant …; assay: ELISA, IgG titrated on the antigen without ANP
[2] = biological target: T2, human NPR1 (Natriuretic Peptide …); assay: ELISA, 1 uM IgG
[3] = biological target: T3, rat NPR1, recombinant antigen; assay: ELISA, 1 uM IgG
[4] = biological target: T1, constitutively active human NPR1 mutant …; assay: ELISA, 1 uM IgG
[5] = biological target: T4, human NPR3 (counter target); assay: ELISA, 1 uM IgG
[6] = biological target: T5, human NPR1 expressed on CHO-K1 cells; assay: cell-based or functional assay
[7] = biological target: T5, human NPR1 expressed on CHO-K1 cells; assay: flow cytometry, 1 uM IgG
human NPR1-ANP complex = biological target: T6, human NPR1-ANP complex; assay: ELISA, 1 uM IgG, +100 nM ANP
rat NPR1-ANP complex = biological target: T8, rat NPR1-ANP complex (rat); assay: ELISA, 1 uM IgG, +100 nM ANP
T8 construct: Rat receptor antigen measured in the presence of ANP; also called rNPR1 + ANP; rNPR1-ANP-complex

[8] = biological target: T7, human NPR1 expressed on CHO-K1 cells in …; assay: flow cytometry, 1 uM IgG, +100 nM ANP
[9] = biological target: T1, constitutively active human NPR1 mutant …; assay: ELISA, IgG titrated on the antigen without ANP [cont.]

binding result [1]	ELISA IgG binding at 1 uM IgG (unit not given) [2]	ELISA IgG binding at 1 uM IgG (unit not given) [3]	ELISA IgG binding at 1 uM IgG (unit not given) [4]	ELISA IgG binding at 1 uM IgG (unit not given) [5]	cGMP conc [nM] at 1 uM IgG, +0.075 nM ANP [6]	cGMP conc [nM] at 1 uM IgG, without ANP [6]	flow cytometry S/BG [7]	ELISA IgG binding at 1 uM IgG (unit not given) (human NPR1-ANP complex)	ELISA IgG binding at 1 uM IgG (unit not given) (rat NPR1-ANP complex)	flow cytometry S/BG [8]	EC50 (read off the curve) [9]	Binder
no binding (tested: 1000 nM)	–	–	–	–	–	–	–	–	–	–	–	WW01 IgG (WW01_LALA) (antibody, V domains shown) VH: QVQLLESGGGLVQPGGSLRLSCAASGFTFNTHYIHWVRQAPGKGLEWVSSISGSGSNTYYADSVKGRFTISRDNSKNTLYLQMNSLRAEDTAVYYCARERGYVYYHMFDPWGQGTLVTVSS VL: DIVLTQSPATLSLSPGERATLSCRASQSITRNYLAWYQQKPGQAPRLLIYGASSRATGIPARFSGSGSGTDFTLTISSLEPEDFAVYYCQQHSMYPRTFGQGTKVEIKR
–	68	3	53	6	9 nM	4 nM	8 S/BG	24	3	44 S/BG	~2 nM	YY07 IgG (YY07_LALA) (antibody, V domains shown) VH: EVQLVQSGAEVKKPGESLKISCKGSGYSFTSYWISWVRQMPGKGLEWMGIIYPGTSYTRYSPSFQGQVTISADKSISTAYLQWSSLKASDTAMYYCARGSLPGLLGFDHWGQGTLVTVSS VL: QSVLTQPPSVSGAPGQRVTISCTGSSSNIGAGYDVHWYQQLPGTAPKLLIYGNSNRPNGVPDRFSGSKSGTSASLAITGLQAEDEADYYCQSYDSPTSSSVFGGGTKLTVLG
